Experimental data: patent publication US20200164032A1 (WASHINGTON UNIVERSITY, published 2020)

Experiments:
[1] = target: CCL2 (species not given); experiment: SPR, R17 variant on CM5 chip; column ka x 10^6 M-1s-1
[2] = target: CCL2 (species not given); experiment: SPR, R17 variant on CM5 chip; column KDeq (nM)
[3] = target: CCL2 (species not given); experiment: SPR, R17 variant on CM5 chip; column KD (nM), kinetic
[4] = target: CCL3 (species not given); experiment: SPR, R17 variant on CM5 chip; column KDeq (nM); ka, kd, KD printed n/a

B1: R17 chemokine decoy receptor of Rodent herpesvirus Peru (RHVP), wild type, C-terminal 8-His fusion (receptor)
chain: GPVGEPVASEINEASKVSSRLLTQDILFRKDRQATISLPIKLPVEDIITQTCDKITYGPLKFLDLLEKETAVLPLSTDITCPACLGRAVLVGKWECPAHVAVNESDLTVFGPNKEEHVPQFVTVQQPSDGKMQRLFFAKFLGTEESLAVLRVPGPDGHLCIQEALIHFKELSGAGVCSLWKANDSREEGLEMKQVDCLETTVLENQTCIATTLSKKIYHRLYCGERLMTGGQVSTRVLLTALGFYKRQPYTFHRVPKGMVYVHLIDSGSEDYMEYSECEEVTPGRYEDKQISYTFYTDLFQTADGEPVLASVWGTSGLKDSAYESCAFVIPTKGRRKLVPRRIMSKCYPFRLTYHPSTMTVRLDVRVEKHHGATDQGFVFLKMESGTYSEGREYYLDRVLWGEDSSTNNVLQ
notes: not shown: C-terminal 8-His tag
[1]
  kon: 2e+06 M⁻¹ s⁻¹
[2]
  Kd: 10 nM
[3]
  Kd: 6.7 nM
[4]
  Kd: 0.4 nM
